Measurements published in patent publication US20140100172A1.
One block for each substance: values may come before it.

Tests used:
[1] = biological target: human chemokine receptor type 4 (CXCR4) (human) (UniProt P61073); assay: radioligand competition binding; CMS5/CXCR4 cells
[2] = biological target: human chemokine receptor type 4 (CXCR4) (human) (UniProt P61073); assay: radioligand competition binding; Jurkat cells
[3] = biological target: human chemokine receptor type 4 (CXCR4) (human) (UniProt P61073); assay: radioligand competition binding; tracer 125I-SDF-1α; CMS5/CXCR4; site (1); set-up: unit not given here
[4] = biological target: human chemokine receptor type 4 (CXCR4) (human) (UniProt P61073); assay: radioligand competition binding; tracer 125I-SDF-1α; CMS5/CXCR4; site (2); set-up: unit not given here
[5] = biological target: human chemokine receptor type 4 (CXCR4) (human) (UniProt P61073); assay: radioligand competition binding; tracer 125I-SDF-1α
[6] = biological target: human chemokine receptor type 4 (CXCR4) (human) (UniProt P61073); assay: radioligand competition binding; tracer 125I-CPCR4
[7] = biological target: human chemokine receptor type 4 (CXCR4) (human) (UniProt P61073); assay: radioligand competition binding; tracer 125I-CPCR4; Jurkat; set-up: unit not given here
[8] = biological target: human chemokine receptor type 4 (CXCR4) (human) (UniProt P61073); assay: radioligand competition binding; tracer 125I-CPCR4; CMS5/CXCR4; set-up: unit not given here
[9] = biological target: human chemokine receptor type 4 (CXCR4) (human) (UniProt P61073); assay: radioligand competition binding; tracer 125I-CPCR4; Jurkat; site (2); set-up: unit not given here
[10] = biological target: human chemokine receptor type 4 (CXCR4) (human) (UniProt P61073); assay: radioligand competition binding; tracer 125I-CPCR4; CMS5/CXCR4; site (2); set-up: unit not given here
[11] = biological target: human chemokine receptor type 4 (CXCR4) (human) (UniProt P61073); assay: radioligand competition binding; tracer 125I-CPCR4; Jurkat; site (1); set-up: unit not given here
[12] = biological target: human chemokine receptor type 4 (CXCR4) (human) (UniProt P61073); assay: radioligand competition binding; tracer 125I-CPCR4; CMS5/CXCR4; site (1); set-up: unit not given here
[13] = biological target: human chemokine receptor type 4 (CXCR4) (human) (UniProt P61073); assay: competition with 125I-CPCR4 tracer on CXCR4-expressing cells

human chemokine receptor type 4 (CXCR4) (human), sequence (P61073 whole entry): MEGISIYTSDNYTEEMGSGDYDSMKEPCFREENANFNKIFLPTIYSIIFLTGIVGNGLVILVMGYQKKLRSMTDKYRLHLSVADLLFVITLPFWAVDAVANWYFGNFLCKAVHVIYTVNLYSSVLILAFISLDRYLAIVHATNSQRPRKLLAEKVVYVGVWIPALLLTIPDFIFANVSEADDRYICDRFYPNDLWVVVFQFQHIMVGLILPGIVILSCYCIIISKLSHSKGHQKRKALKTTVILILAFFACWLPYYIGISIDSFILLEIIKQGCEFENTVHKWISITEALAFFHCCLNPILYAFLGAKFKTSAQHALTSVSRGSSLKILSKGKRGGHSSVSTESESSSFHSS

- IC50 [1]: 6.5 nM
- IC50 [2]: 4 nM
Substance: 125I-CPCR4

- IC50 [3]: 0.01 ?
- IC50 [4]: 6.9 ?
- IC50 [5]: 5.5 nM
- IC50 [6]: 3.8 nM
- IC50 [7]: 3.7 ?
- IC50 [8]: 6.8 ?
Substance: CPCR4, cyclo[D-Tyr-Arg-Arg-Nal-Gly]

- IC50 [3]: 0.02 ?
- IC50 [9]: 4.6 ?
- IC50 [4]: 8.8 ?
- IC50 [10]: 3.5 ?
- IC50 [11]: 0.01 ?
- IC50 [12]: 0.01 ?
Substance: Iodo-CPCR4

- IC50 [13]: 59 nM
Substance: cyc[D-Tyr-(Me)D-Orn(Me, FB)-Arg-Nal-Gly] (peptide)

- IC50 [13]: 86 nM
Substance: cyc[D-Tyr-D-Orn(FB)-Arg-Nal-Gly] (peptide)

- IC50 [13]: 70 nM
Substance: cyc[D-Tyr-Orn(Ahx)-Arg-Nal-Gly] (peptide)

- IC50 [13]: 100 nM
Substance: cyc[D-Tyr-Orn(Bz, FB)-Arg-Nal-Gly] (peptide)

- IC50 [13]: 11 nM
Substance: cyc[D-Tyr-Orn(FB)-Arg-Nal-Gly] (peptide)

- IC50 [13]: 1000 nM
Substance: cyc[Nal-Gly-D-Tyr-Arg-Orn] (peptide)

- IC50 [13]: 9 nM
Substance: cyc[Nal-Gly-D-Tyr-Orn-Arg] (peptide)
